In US20050064493A1 (LICENTIA, published 2005):

Legend:
human VEGF165 [1] = molecular target: T1, human VEGF165 (human, UniProt P15692 27-191); experiment: cotransfected Cos-1 cells; immunoprecipitation of media and lysates, reducing SDS-PAGE (FIG. 23B)
T1 construct: mature; Expressed from cDNA in 293EBNA cells (pREP7) or Cos-1 cells (pSG5)
Description: cDNA inserts encoding mouse VEGF-B₁₈₆ and human VEGF₁₆₅ were cloned into the pSG5 expression vector [Green et al., Nucleic Acid Res., 16:369 (1988)]. Cos-1 cells were maintained in minimal essential medium (MEM) containing 10% fetal calf serum, 2 mM glutamine and appropriate antibiotics. For transfections, the cells were replated into 90 mm Petri dishes. The cells were transfected with the expression vectors, separately or in combination, using calcium phosphate precipitation and incubated for 36-48 hours. Monolayers of cells were incubated in medium free of methionine and cysteine for 30 min and then incubated in the same medium containing 100 μCi/ml of [³⁵S]-methionine and [³⁵S]-cysteine for 2 hours (Promix Amersham Inc.).
For the pulse-chase experiments, the cells were labeled for 30 minutes, washed twice with normal medium and then incubated for up to 6 hours in MEM without fetal calf serum. Media were collected after the chase period and the cells were solubilized in 10 mM Tris buffer pH 7.5 containing 50 mM NaCl, 0.5% deoxycholate, 0.5% nonidet P-40 and 0.1% SDS. Aliquots of the media and the cell lysates were subjected to immunoprecipitation using the specific antiserum to mouse VEGF-B from Example 8a and a specific antiserum to human VEGF commercially available from R&D Systems. The precipitates were analyzed by SDS-PAGE. […]

[2] = molecular target: the molecule itself; experiment: SDS-PAGE and immunoblot of Sf21 culture medium
Description: Sf21 cells [see Vaughn et al., In Vitro, 13:213-17 (1977)] were infected with the baculovirus stocks of Example 10 at a multiplicity of infection of 10 virus particles per cell. The infected Sf21 cells were grown in roller flasks and seeded at a density of 2×10⁶ cells per ml of serum free medium (Sf900II, Gibco-BRL) for 96 hours. Culture media and cells were then harvested. Aliquots of the cell lysates and of the media were analyzed by SDS-PAGE. Total protein patterns were visualized by staining the gels with Coomassie Brilliant Blue and the presence of expressed VEGF-B isoforms were visualized by immunoblotting using specific antipeptide antibodies to human and mouse VEGF-B as described above in Example 8. […] Both proteins were retained intracellularly in the infected cells and not released into the medium. In contrast, mouse VEGF-B-₁₈₆ was readily secreted into the medium in a dimeric form.

[3] = molecular target: the molecule itself; experiment: immunoprecipitation and SDS-PAGE, transfected 293EBNA cells
Description: The biochemical properties of human VEGF-B₁₆₇ were examined in transfected human embryonic kidney 293EBNA cells (Invitrogen, Inc.). cDNA inserts encoding human VEGF-B₁₆₇ and human VEGF₁₆₅ [see Keck et al., Science, Vol. 246, pages 1309-312 (1989)] were individually cloned into the pREP7 expression vector (Invitrogen, Inc.). Human embryo kidney 293EBNA cells (expressing Epstein-Barr virus nuclear antigen-1) were transfected by transient transfection with the respective expression plasmids using calcium phosphate precipitation, and the cells were incubated for 48 hours. As a control, cells also were transfected with an expression vector containing the VEGF-B₁₆₇ cDNA in reverse orientation. Monolayers of cells were incubated in methionine-free and cysteine-free medium for 30 minutes followed by labeling with 100 μCi/ml [³⁵S]methionine and [³⁵S]cysteine (Promix, Amersham Inc.) in the same medium for 2 hours. […]
VEGF-B₁₆₇ was expressed in the cells transfected with the plasmids containing the VEGF-B₁₆₇ DNA. Aliquots of the culture supernatants from cells treated or untreated with heparin and detergent solubilized cell lysates were subjected to immunoprecipitation with the specific antipeptide antiserum to VEGF-B obtained as described in Example 8 and analyzed by SDS-PAGE under reducing conditions unless otherwise indicated. […]

human VEGF165 [4] = molecular target: T1, human VEGF165; experiment: coexpression in transfected cells, immunoprecipitation
Description: The biochemical properties of human VEGF-B₁₆₇ were examined in transfected human embryonic kidney 293EBNA cells (Invitrogen, Inc.). cDNA inserts encoding human VEGF-B₁₆₇ and human VEGF₁₆₅ [see Keck et al., Science, Vol. 246, pages 1309-312 (1989)] were individually cloned into the pREP7 expression vector (Invitrogen, Inc.). Human embryo kidney 293EBNA cells (expressing Epstein-Barr virus nuclear antigen-1) were transfected by transient transfection with the respective expression plasmids using calcium phosphate precipitation, and the cells were incubated for 48 hours. As a control, cells also were transfected with an expression vector containing the VEGF-B₁₆₇ cDNA in reverse orientation. Monolayers of cells were incubated in methionine-free and cysteine-free medium for 30 minutes followed by labeling with 100 μCi/ml [³⁵S]methionine and [³⁵S]cysteine (Promix, Amersham Inc.) in the same medium for 2 hours. The labeling medium was replaced with normal medium without serum, and labelled proteins were chased for 6 hours. Heparin was included during the chase when indicated (100 μg/ml). Media were collected after the chase period, and cells were solubilized in 10 mM Tris pH 7.5, 50 mM NaCl, 0.5% sodium deoxycholate, 0.5% Nonidet P-40, 0.1% SDS and 0.1 U/ml aprotinin. […]

T1 sequence (P15692 other isoform, or with tags, fused parts or gaps): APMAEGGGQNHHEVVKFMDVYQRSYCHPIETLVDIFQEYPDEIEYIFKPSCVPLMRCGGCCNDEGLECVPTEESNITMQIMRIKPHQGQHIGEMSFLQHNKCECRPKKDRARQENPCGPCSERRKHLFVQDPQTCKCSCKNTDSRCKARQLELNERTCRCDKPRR

B1: murine VEGF-B186 (ligand)
chain: PVAQFDGPSHQKKVVPWIDVYARATCQPREVVVPLSMELMGNVVKQLVPSCVTVQRCGGCCPDDGLECVPTGQHQVRMQILMIQYPSSQLGEMSLEEHSQCECRPKKKESAVKPDRVAIPHHRPQPRSVPGWDSTPGASSPADIIHPTPAPGSSARLAPSAVNALTPGPAAAAADAAASSIAKGGA
notes: Expressed in Cos-1 cells (pSG5) or Sf21 insect cells; The form secreted from Cos-1 cells carries an unidentified covalent modification (Mr 32,000 against 24,000 in cells); it forms disulfide-linked homodimers and heterodimers with VEGF165; also called mVEGF-B186; mouse VEGF-B186
B1: binds (human VEGF165 [1]); binds [2].

B2: human VEGF-B167 (ligand)
chain: PVSQPDAPGHQRKVVSWIDVYTRATCQPREVVVPLTVELMGTVAKQLVPSCVTVQRCGGCCPDDGLECVPTGQHQVRMQILMIRYPSSQLGEMSLEEHSQCECRPKKKDSAVKPDSPRPLCPRCTQHHQRPDPRTCRCRCRRRSFLRCQGRGLELNPDTCRCRKLRR
notes: Expressed from cDNA in 293EBNA cells (pREP7) or in Sf9/Sf21 insect cells; it forms disulfide-linked homodimers and heterodimers with VEGF165; also called hVEGF-B167; vascular endothelial growth factor B
B2: binds [3]; binds (human VEGF165 [4]).
